Here are results for three substances from PMC5735978.

In assay [1] the target is 6xHis-14-3-3γ wild-type (human) (UniProt P61981). Put plainly: native gel or EMSA; blue native gel (4-16%) of His-14-3-3γ after incubation with Flag-PAK6 S531N (4:1 molar ratio) under kinase assay conditions with or without 1 mM ATP; Coomassie staining.
A further assay has as its target LRRK2 (UniProt Q5S007). Put plainly: overlay of His-14-3-3γ on blotted Flag-LRRK2. The conditions noted are these: reference: 14-3-3γ wild type; sites S59.
The next assay concerns the target 14-3-3γ (UniProt P61981). In words: overlay of His-14-3-3γ on blotted Flag-PAK6. The conditions noted are these: reference: PAK6 wild type; sites S113.

For “6xHis-14-3-3γ wild-type (from UniProt P61981 1-247) (natural protein)”, the stoichiometry N in assay [1] was 2. In turn, “14-3-3γ (from UniProt P61981) 14-3-3γ S59D” had an other: percent reduction versus wild type in the assay with LRRK2 of 80%. In the case of PAK6 (from UniProt Q9NQU5) PAK6 S113A, the “binding against the reference” value with 14-3-3γ was “weaker”.
